{
  "source": "paper PMC3565045",
  "biological_target": "Cryptococcus neoformans acetate kinase (Cryptococcus neoformans)",
  "assay": "crystal structure",
  "data": [
    {"substance": "Cryptococcus neoformans acetate kinase (enzyme)", "values": [
      {"measurement": "stoichiometry N", "value": 2}
    ]}
  ]
}
